Source: the supplement of paper PMC9112550, “Optimization of the antimicrobial peptide Bac7 by deep mutational scanning” (BMC Biology, 2022)
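Further: peptides expressed intracellularly from a pBAD plasmid library in pooled LB shake-flask culture, induced with 0.3% L-arabinose, DNA abundance read by NGS, three biological replicates, DESeq2 with apeglm shrinkage.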

What follows are sequences tested on Escherichia coli TOP10 (assay: shrunken log2 fold change of peptide-encoding DNA abundance (4.5 h post-induction vs induction); higher = less antimicrobial activity (less host growth inhibition)). Conditions: time post-induction: 4.5 h; library: site-saturation at positions 5, 18, 19, 20.
RRIRRRPPRLPRPRPRPLWMPRP was tested, and the “shrunken log2 fold change” value was 0.0635. RRIRRRPPRLPRPRPRPLYIPRP was tested, and the “shrunken log2 fold change” value was -0.466. RRIRRRPPRLPRPRPRPMASPRP was tested, and the “shrunken log2 fold change” value was -0.00822. RRIRRRPPRLPRPRPRPMCAPRP was tested, and the “shrunken log2 fold change” value was 0.193. In the case of RRIRRRPPRLPRPRPRPMCCPRP, the “shrunken log2 fold change” value is reported as -0.0111. RRIRRRPPRLPRPRPRPMCDPRP was tested, and the “shrunken log2 fold change” value was 0.308. For RRIRRRPPRLPRPRPRPMDCPRP, the “shrunken log2 fold change” value was 0.00462. With RRIRRRPPRLPRPRPRPMDGPRP the “shrunken log2 fold change” value was 0.0167. For RRIRRRPPRLPRPRPRPMDQPRP, the “shrunken log2 fold change” value was 0.132. In the case of RRIRRRPPRLPRPRPRPMFDPRP, the “shrunken log2 fold change” value is reported as 0.195. With RRIRRRPPRLPRPRPRPMFSPRP the “shrunken log2 fold change” value was -0.0418. For RRIRRRPPRLPRPRPRPMGCPRP, the “shrunken log2 fold change” value was -0.0336. RRIRRRPPRLPRPRPRPMHMPRP was tested, and the “shrunken log2 fold change” value was 0.121. With RRIRRRPPRLPRPRPRPMIEPRP the “shrunken log2 fold change” value was 0.177. For RRIRRRPPRLPRPRPRPMIFPRP, the “shrunken log2 fold change” value was -0.241. In the case of RRIRRRPPRLPRPRPRPMINPRP, the “shrunken log2 fold change” value is reported as -0.157. RRIRRRPPRLPRPRPRPMKWPRP was tested, and the “shrunken log2 fold change” value was 0.016. RRIRRRPPRLPRPRPRPMNTPRP was tested, and the “shrunken log2 fold change” value was -0.171. With RRIRRRPPRLPRPRPRPMPYPRP the “shrunken log2 fold change” value was -0.0473. In the case of RRIRRRPPRLPRPRPRPMQMPRP, the “shrunken log2 fold change” value is reported as 0.54. With RRIRRRPPRLPRPRPRPMRFPRP the “shrunken log2 fold change” value was 1.1. For RRIRRRPPRLPRPRPRPMVWPRP, the “shrunken log2 fold change” value was 0.686. In the case of RRIRRRPPRLPRPRPRPMVYPRP, the “shrunken log2 fold change” value is reported as 0.119. RRIRRRPPRLPRPRPRPMWAPRP was tested, and the “shrunken log2 fold change” value was 0.161. In the case of RRIRRRPPRLPRPRPRPMWCPRP, the “shrunken log2 fold change” value is reported as 0.135. In the case of RRIRRRPPRLPRPRPRPMWFPRP, the “shrunken log2 fold change” value is reported as -0.0232. In the case of RRIRRRPPRLPRPRPRPMYNPRP, the “shrunken log2 fold change” value is reported as -0.137. For RRIRRRPPRLPRPRPRPNAFPRP, the “shrunken log2 fold change” value was -0.0721. RRIRRRPPRLPRPRPRPNCQPRP was tested, and the “shrunken log2 fold change” value was 0.0764. RRIRRRPPRLPRPRPRPNETPRP was tested, and the “shrunken log2 fold change” value was -0.0619. With RRIRRRPPRLPRPRPRPNHNPRP the “shrunken log2 fold change” value was -0.329. RRIRRRPPRLPRPRPRPNIRPRP was tested, and the “shrunken log2 fold change” value was -0.144. For RRIRRRPPRLPRPRPRPNKIPRP, the “shrunken log2 fold change” value was 0.755. RRIRRRPPRLPRPRPRPNKLPRP was tested, and the “shrunken log2 fold change” value was -0.138. With RRIRRRPPRLPRPRPRPNLCPRP the “shrunken log2 fold change” value was 0.00272. In the case of RRIRRRPPRLPRPRPRPNLKPRP, the “shrunken log2 fold change” value is reported as -0.0818. In the case of RRIRRRPPRLPRPRPRPNLNPRP, the “shrunken log2 fold change” value is reported as -0.0389. For RRIRRRPPRLPRPRPRPNMFPRP, the “shrunken log2 fold change” value was -0.047. For RRIRRRPPRLPRPRPRPNMMPRP, the “shrunken log2 fold change” value was -0.245. In the case of RRIRRRPPRLPRPRPRPNPDPRP, the “shrunken log2 fold change” value is reported as 0.314. RRIRRRPPRLPRPRPRPNPVPRP was tested, and the “shrunken log2 fold change” value was 0.123. In the case of RRIRRRPPRLPRPRPRPNQLPRP, the “shrunken log2 fold change” value is reported as -0.178. RRIRRRPPRLPRPRPRPNQSPRP was tested, and the “shrunken log2 fold change” value was -0.13. With RRIRRRPPRLPRPRPRPNRAPRP the “shrunken log2 fold change” value was 3.1. In the case of RRIRRRPPRLPRPRPRPNTCPRP, the “shrunken log2 fold change” value is reported as 0.0105. RRIRRRPPRLPRPRPRPNWPPRP was tested, and the “shrunken log2 fold change” value was 0.118. In the case of RRIRRRPPRLPRPRPRPNWSPRP, the “shrunken log2 fold change” value is reported as -0.0147. For RRIRRRPPRLPRPRPRPNYMPRP, the “shrunken log2 fold change” value was -0.605. RRIRRRPPRLPRPRPRPPDPPRP was tested, and the “shrunken log2 fold change” value was 0.707. For RRIRRRPPRLPRPRPRPPEGPRP, the “shrunken log2 fold change” value was 0.657. In the case of RRIRRRPPRLPRPRPRPPETPRP, the “shrunken log2 fold change” value is reported as 0.831. RRIRRRPPRLPRPRPRPPFHPRP was tested, and the “shrunken log2 fold change” value was 0.321. With RRIRRRPPRLPRPRPRPPFIPRP the “shrunken log2 fold change” value was 0.299. In the case of RRIRRRPPRLPRPRPRPPHQPRP, the “shrunken log2 fold change” value is reported as 1.32. With RRIRRRPPRLPRPRPRPPICPRP the “shrunken log2 fold change” value was 0.152. RRIRRRPPRLPRPRPRPPISPRP was tested, and the “shrunken log2 fold change” value was 0.0255. RRIRRRPPRLPRPRPRPPIWPRP was tested, and the “shrunken log2 fold change” value was 2.59. In the case of RRIRRRPPRLPRPRPRPPKIPRP, the “shrunken log2 fold change” value is reported as 0.403. For RRIRRRPPRLPRPRPRPPKQPRP, the “shrunken log2 fold change” value was 0.459. RRIRRRPPRLPRPRPRPPLHPRP was tested, and the “shrunken log2 fold change” value was 0.695. In the case of RRIRRRPPRLPRPRPRPPMWPRP, the “shrunken log2 fold change” value is reported as 0.548. RRIRRRPPRLPRPRPRPPPQPRP was tested, and the “shrunken log2 fold change” value was 1.27. In the case of RRIRRRPPRLPRPRPRPPQFPRP, the “shrunken log2 fold change” value is reported as 0.864. With RRIRRRPPRLPRPRPRPPQRPRP the “shrunken log2 fold change” value was 1.64. RRIRRRPPRLPRPRPRPPRDPRP was tested, and the “shrunken log2 fold change” value was 1.48. For RRIRRRPPRLPRPRPRPPRGPRP, the “shrunken log2 fold change” value was 0.911. In the case of RRIRRRPPRLPRPRPRPPRYPRP, the “shrunken log2 fold change” value is reported as 0.978. For RRIRRRPPRLPRPRPRPPSAPRP, the “shrunken log2 fold change” value was 0.626. In the case of RRIRRRPPRLPRPRPRPPSNPRP, the “shrunken log2 fold change” value is reported as 0.0633. For RRIRRRPPRLPRPRPRPPSTPRP, the “shrunken log2 fold change” value was 0.585. In the case of RRIRRRPPRLPRPRPRPPTGPRP, the “shrunken log2 fold change” value is reported as 0.625. For RRIRRRPPRLPRPRPRPPTHPRP, the “shrunken log2 fold change” value was 0.622. In the case of RRIRRRPPRLPRPRPRPPVLPRP, the “shrunken log2 fold change” value is reported as 0.18. RRIRRRPPRLPRPRPRPPVMPRP was tested, and the “shrunken log2 fold change” value was 0.403. RRIRRRPPRLPRPRPRPPWIPRP was tested, and the “shrunken log2 fold change” value was 0.365. In the case of RRIRRRPPRLPRPRPRPPYCPRP, the “shrunken log2 fold change” value is reported as 0.256. RRIRRRPPRLPRPRPRPQAMPRP was tested, and the “shrunken log2 fold change” value was 0.0414. RRIRRRPPRLPRPRPRPQAPPRP was tested, and the “shrunken log2 fold change” value was 0.236. In the case of RRIRRRPPRLPRPRPRPQCFPRP, the “shrunken log2 fold change” value is reported as 0.212. RRIRRRPPRLPRPRPRPQDHPRP was tested, and the “shrunken log2 fold change” value was -0.0159. With RRIRRRPPRLPRPRPRPQEWPRP the “shrunken log2 fold change” value was -0.0466. For RRIRRRPPRLPRPRPRPQFDPRP, the “shrunken log2 fold change” value was 0.107. RRIRRRPPRLPRPRPRPQFVPRP was tested, and the “shrunken log2 fold change” value was 0.153. For RRIRRRPPRLPRPRPRPQHQPRP, the “shrunken log2 fold change” value was 0.246. For RRIRRRPPRLPRPRPRPQIMPRP, the “shrunken log2 fold change” value was -0.137. RRIRRRPPRLPRPRPRPQIPPRP was tested, and the “shrunken log2 fold change” value was 0.00964. For RRIRRRPPRLPRPRPRPQLFPRP, the “shrunken log2 fold change” value was 2.21. For RRIRRRPPRLPRPRPRPQLKPRP, the “shrunken log2 fold change” value was 0.0988. RRIRRRPPRLPRPRPRPQLTPRP was tested, and the “shrunken log2 fold change” value was 0.122. For RRIRRRPPRLPRPRPRPQNEPRP, the “shrunken log2 fold change” value was 0.0801. For RRIRRRPPRLPRPRPRPQNMPRP, the “shrunken log2 fold change” value was -0.472. In the case of RRIRRRPPRLPRPRPRPQPEPRP, the “shrunken log2 fold change” value is reported as 0.0541. For RRIRRRPPRLPRPRPRPQPYPRP, the “shrunken log2 fold change” value was -0.142. RRIRRRPPRLPRPRPRPQQAPRP was tested, and the “shrunken log2 fold change” value was 0.115. For RRIRRRPPRLPRPRPRPQQYPRP, the “shrunken log2 fold change” value was -0.0784. With RRIRRRPPRLPRPRPRPQRVPRP the “shrunken log2 fold change” value was 0.155. For RRIRRRPPRLPRPRPRPQSEPRP, the “shrunken log2 fold change” value was 0.0256. With RRIRRRPPRLPRPRPRPQSPPRP the “shrunken log2 fold change” value was 0.281. In the case of RRIRRRPPRLPRPRPRPQVTPRP, the “shrunken log2 fold change” value is reported as -0.0275. With RRIRRRPPRLPRPRPRPQYGPRP the “shrunken log2 fold change” value was -0.409. For RRIRRRPPRLPRPRPRPQYPPRP, the “shrunken log2 fold change” value was -0.444. In the case of RRIRRRPPRLPRPRPRPQYVPRP, the “shrunken log2 fold change” value is reported as -0.265. For RRIRRRPPRLPRPRPRPRAVPRP, the “shrunken log2 fold change” value was 0.427. For RRIRRRPPRLPRPRPRPREFPRP, the “shrunken log2 fold change” value was 0.419. For RRIRRRPPRLPRPRPRPREHPRP, the “shrunken log2 fold change” value was 0.673. RRIRRRPPRLPRPRPRPREKPRP was tested, and the “shrunken log2 fold change” value was 0.0627. For RRIRRRPPRLPRPRPRPREVPRP, the “shrunken log2 fold change” value was 0.442. With RRIRRRPPRLPRPRPRPRFEPRP the “shrunken log2 fold change” value was 0.582. For RRIRRRPPRLPRPRPRPRFFPRP, the “shrunken log2 fold change” value was 0.507.
